Source: publication PMC4472604

T1: DOR (Mus musculus), P32300
T1 chain: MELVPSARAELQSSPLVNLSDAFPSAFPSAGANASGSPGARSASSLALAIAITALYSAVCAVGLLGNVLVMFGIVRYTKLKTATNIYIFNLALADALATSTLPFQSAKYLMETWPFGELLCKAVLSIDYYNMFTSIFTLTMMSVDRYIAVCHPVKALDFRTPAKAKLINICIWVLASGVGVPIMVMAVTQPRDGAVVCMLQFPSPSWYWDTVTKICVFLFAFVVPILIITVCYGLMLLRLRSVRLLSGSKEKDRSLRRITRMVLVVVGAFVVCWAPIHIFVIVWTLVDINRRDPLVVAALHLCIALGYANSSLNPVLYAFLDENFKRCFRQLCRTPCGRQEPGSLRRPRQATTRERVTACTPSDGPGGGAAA

T2: 6TM/E11 6TM/E11 splice variant (Mus musculus), P42866
T2 chain: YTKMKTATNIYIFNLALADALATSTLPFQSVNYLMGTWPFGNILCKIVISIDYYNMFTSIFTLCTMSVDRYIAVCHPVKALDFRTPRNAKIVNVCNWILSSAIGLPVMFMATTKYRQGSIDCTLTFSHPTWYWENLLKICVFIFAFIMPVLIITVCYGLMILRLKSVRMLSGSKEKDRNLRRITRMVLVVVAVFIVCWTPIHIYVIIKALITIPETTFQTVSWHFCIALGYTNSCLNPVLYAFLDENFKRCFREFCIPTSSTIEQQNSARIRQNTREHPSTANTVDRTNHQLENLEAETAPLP

T3: KOR (Mus musculus), P33534
T3 chain: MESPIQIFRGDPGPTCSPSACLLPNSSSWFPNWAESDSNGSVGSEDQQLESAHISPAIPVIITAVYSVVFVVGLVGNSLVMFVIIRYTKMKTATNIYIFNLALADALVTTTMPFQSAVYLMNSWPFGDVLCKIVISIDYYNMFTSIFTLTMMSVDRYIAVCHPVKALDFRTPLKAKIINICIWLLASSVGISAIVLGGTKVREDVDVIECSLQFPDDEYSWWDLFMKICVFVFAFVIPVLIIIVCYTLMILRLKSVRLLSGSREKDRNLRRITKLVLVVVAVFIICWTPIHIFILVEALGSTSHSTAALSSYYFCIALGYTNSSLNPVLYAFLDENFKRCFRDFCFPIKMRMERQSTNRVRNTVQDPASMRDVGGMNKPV


What was measured:
Assay in all cases: radioligand
Details in all cases: modification not given
[1] = molecular target: T1, DOR (Mus musculus), P32300
[2] = molecular target: T2, 6TM/E11 6TM/E11 splice variant (Mus …)
[3] = molecular target: MOR (Mus musculus), P42866
[4] = molecular target: T3, KOR (Mus musculus), P33534

Chain of MOR (Mus musculus), P42866 (P42866 whole entry): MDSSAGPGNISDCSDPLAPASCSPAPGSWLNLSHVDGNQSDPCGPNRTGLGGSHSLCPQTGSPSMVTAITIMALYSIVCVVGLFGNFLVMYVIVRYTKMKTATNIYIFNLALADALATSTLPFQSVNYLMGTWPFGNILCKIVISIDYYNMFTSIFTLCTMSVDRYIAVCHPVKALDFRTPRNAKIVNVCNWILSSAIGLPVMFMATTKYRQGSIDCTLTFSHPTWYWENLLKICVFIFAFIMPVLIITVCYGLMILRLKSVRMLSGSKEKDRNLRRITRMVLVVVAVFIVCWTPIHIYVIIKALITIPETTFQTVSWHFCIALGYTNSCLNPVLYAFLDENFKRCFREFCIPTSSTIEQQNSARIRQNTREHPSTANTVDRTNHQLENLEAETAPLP

| Binder | Kd [1] [nM] | Ki [2] [nM] | Ki [3] [nM] | Ki [4] [nM] |
| --- | --- | --- | --- | --- |
| YAFEIIG [[125I]-3 (125I-GATE3-8)] | 0.11 | – | – | – |
| YAFEIIG [peptide 1] | – | > 1000 | > 1000 | > 1000 |
| YAFEVVG [[D-Ala2]deltorphin II] | – | > 1000 | > 1000 | > 1000 |
